{"source": "paper PMC4245941", "about": "“Timely binding of IHF and Fis to DARS2 regulates ATP–DnaA production and replication initiation” (Nucleic Acids Research, 2014)", "target": "the molecule itself", "assay": "native gel or EMSA; DnaA (ADP or ATP form) incubated at 30°C for 5 min in dissociation buffer (20 mM Tris-HCl pH 7.5, 100 mM potassium glutamate, 10 mM magnesium acetate, 2 mM ATP) with DARS2ΔRight or DARS2ΔRight/subFBS1 DNA (15 fmol) and poly (dI-dC), 5% PAGE; DnaA multimers form on the DNA; without or with IHF and Fis"}
{"protein": "DnaA (wild type) (natural protein, Escherichia coli, UniProt P03004 1-467, looked up, DnaA, chromosomal replication initiator protein, Escherichia coli, wild type; Used loaded with ADP or ATP (not covalent); also called ADP–DnaA; ATP–DnaA) MSLSLWQQCLARLQDELPATEFSMWIRPLQAELSDNTLALYAPNRFVLDWVRDKYLNNINGLLTSFCGADAPQLRFEVGTKPVTQTPQAAVTSNVAAPAQVAQTQPQRAAPSTRSGWDNVPAPAEPTYRSNVNVKHTFDNFVEGKSNQLARAAARQVADNPGGAYNPLFLYGGTGLGKTHLLHAVGNGIMARKPNAKVVYMHSERFVQDMVKALQNNAIEEFKRYYRSVDALLIDDIQFFANKERSQEEFFHTFNALLEGNQQIILTSDRYPKEINGVEDRLKSRFGWGLTVAIEPPELETRVAILMKKADENDIRLPGEVAFFIAKRLRSNVRELEGALNRVIANANFTGRAITIDFVREALRDLLALQEKLVTIDNIQKTVAEYYKIKVADLLSKRRSRSVARPRQMAMALAKELTNHSLPEIGDAFGGRDHTTVLHACRKIEQLREESHDIKEDFSNLIRTLSS", "values": [{"measurement": "binding result", "result": "binds"}]}
